From the nanobody polyreactivity screen of Harvey et al. (2022) come the findings set out here.

This data set is described as follows: yeast display, Sf9 membrane polyspecificity reagent, FACS + sequencing; frameworks hold sequencing errors. In short, it runs like this:
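Using colony PCR, genes from sorted yeast display clones were amplified, then sequenced on MiSeq at 2 × 250 and filtered by CDR length. The clones had been stained with 10% biotinylated, detergent-solubilized Sf9 membrane reagent for 1 hour at 4 °C and sorted by FACS into low and high (top ~1%) gates on anti-HA and streptavidin fluorescence. Polyreactivity labels come from the gate of origin.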
With “QVQLVESGGGLVQAGGSLRLSCAASGFIFAYYVMGWYRQAPGKERELVAAITSRGGRTYYADSVKGRFTISRDNAKNTVYLQMNSLKPEDTAVYYCAAYRQLVNLREDYWGQGTQVTVSS”, the “polyreactivity (PSR sort gate)” value is recorded as “high polyreactivity”.
“QVQLVESGGGLVQAGGSLRLSCAASGITLVYYVMGWYRQAPGKERELVAAISSGGITYYADSVKGRFTISRDNAKNTVYLQMNSLKPEDTAVYYCAAESRQYVRTYGYWGQGTQVTVSS”: the “polyreactivity (PSR sort gate)” value was “low polyreactivity”.
With “QVQLVESGGGLVQAGGSLRLSCAASGYIFRYYAMGWYRQAPGKEREFVAAISRNGGSTYYADSVKGRFTISRDNAKNTVYLQMNSLKPEDTAVYYCNKRVGFLYKYDYWGQGTQVTVSS”, the “polyreactivity (PSR sort gate)” value is “high polyreactivity”.
Consider “QVQLVESGRGLVQAGGSLRLSCAASGRTFRGNAMGWYREAPGKERELVAAIRYRGGSTYYADSVKGRFTISRDNAKNTVYLQMNSLKPEDTAVYYCARRYTVHTQHYDYWGQGTQVNVSS”, for which the “polyreactivity (PSR sort gate)” value was “high polyreactivity”.
For “QVQLVESGGGLVQAGGSLRLSCAASGIIFYRYAMGWYRQAPGKERELVAAISSSGGSTYYADSVKGRFTISRDNAKNTVYLQMNSLKPEDTAVYYCARVTTVYDGRGFVDVKRGYWGQGTQVTVSS”, the “polyreactivity (PSR sort gate)” value is reported as “high polyreactivity”.
To “QVQLVESGGGLVQAGGSLRLSCAASGRIFRLYAMGWYRQAPGKERELVAAIRSATRTTYADSVKGRFTISRDNAKNTVYLQMNSLKPEDTAFYYCAARLWRYSDVSKYYSWGQGTQVTVSS” belongs “high polyreactivity”.
For the sequence “HVQLVESGGGLVQAGGSLRLSCAASGFIFRGHVMGWYRQAPGKERELVAAISGGSTTYADSVKGRFTISRDNAKTTVYLQMNSLKPEDTAVYYCAKRDQDRTFPNGYWGQGTQVTVSS”, the “polyreactivity (PSR sort gate)” value is “high polyreactivity”.
To “QVQLVESGGGLVQAGGSLRLICAASGSNFGSNAMGWYRQAPGKETEFVAVITWRVGVTYYADSVKGRFTISRDNAKNTVYLQMNSLKPEDTAVYYCNVDWKVYGAPDYRIAWKYDYWGQGTQVTVSS” belongs “low polyreactivity”; to “QVQLVESGGGLVQAGGSLRLSCAASGSTFFLYAMGWYRQAPGKEREFVAAISIGGSTNYADSVKGRFTISRDNAKNTVYLQMNSLKPEDTAVYYCAKLDLQYIQYLGYDYWGQGTQVTVSS”, “low polyreactivity”.
“QVQLVESGGGLVQAGGSLRLSCAASGNLFDYYAMGWYRQAPGKERELVAAISTGTSTYADSVKGRFTISRDNAKNTVYLQMNSLKPEDTAVYYCAADVGIRPLNYHPYNYWGQGTQVTVSS”: the “polyreactivity (PSR sort gate)” value is on record as “low polyreactivity”.
To “QVQLVESGGGLVQAGGSLRLSCAASGSIFGYYAMGWYRQAPGKERELVAAITTRGGRTYYADSVKGRFTISRDNAKNTVYFQINSLKPEDTAVYYCAARTGRGRYDYWGQGTQVTVSS” belongs “high polyreactivity”; to “QDQLVESGGGLVQAGGCLRLSCAASGSIFIPYAMGSYRQAPGKERELVAAISLGDGNTYYADSVKGRFTISRDNAKYTVYLQMNSLKPEDTAVYYCNAVPRKFGDEYWGQGTQVTVSS”, “low polyreactivity”.
Turning to “QVQLVESGGGLVQAGGSLRISCAASASIFPGYAMGWYRQAPGKERELVAAISWSGGRTYYADSVKGRFTISRDNSKNTFYLQMNSLKPEDTAVYYCAARKYHLRSAYDYWGQGTQVTVSS”, the “polyreactivity (PSR sort gate)” value is given as “low polyreactivity”.
With “QVQLVESGGGLVQAGGSLRLSCAASGFIFSRYTMGWYRQAPGKERELVAAITARGSSTYYADSVKGRFTISRDIAKNTVYLQMISLKPEDTAVYYCNAGQYVFYRPYDYWGQGTQVTVSS” the entry was “high polyreactivity”; with “QVQLVESGGGLVQAGGSLRLSCAASGSTFKWNAMGWYRQAPGKERELVAAISKGSVNTYYADSVKGRFTISRDNAKNTVYLQMNSLKPEDTAVYYCAADRRYPALDYRGQGTQVTVSS”, “high polyreactivity”; with “QVQLVESGGGLVQAGGSLRLSCAASGRTFYSNTMGWYRQSPGKERELVAAIDWSGGRTYYADSVKGRFTISRDNAKNTVYLQMHSLKPEDTAVYYCNTVGYSLRLRTGGYWGQGTQVTVSS”, “high polyreactivity”.
As to “QVQLVESGGGLVQAGGSLRFSCAASGFIFSAYAMGWYRPAPGKERELVAAITWNGGSTYYADSVKGRFTISRDNAKNTVYLQMNSLKPEDTAVYYCNAVIKQHYIKYSYWGQGTQVTVSS”, the “polyreactivity (PSR sort gate)” value is listed as “high polyreactivity”.
With “QVQLVESGGGLVQAGGSLRLSCAASGRIFGYNAMGWYRQAPGKERELVASITSAASTYYADSVKGRFTISRDNAKNTVYLQMNSLKPEDTAVYYCAASAYSALFYWYDYWGQGTQVTVSW”, the “polyreactivity (PSR sort gate)” value is recorded as “high polyreactivity”.
To “QVQLVESGGGLVQAGGSHRLSCAASGRIFRPYAMGWYRQAPGKEREFVATITRSVGRTYYADSVKGRFTISRDNAKNTVYLQMNSLKPEDTAVYYCATKYIRGTRADVYRFDYWGQGTQVTVSS” belongs “high polyreactivity”; to “QVQLVESGGGLVQAGGSLRLSCAASGRTFYWYAMGWYRQAPGKERELVAAIRRSGGRTYYADSVKGRFTISRDNAKNTVYLQMNSLKPEDTAVYYCNVAYLRYPGPLDYWGQGTQVTVSS”, “high polyreactivity”.
As for “QVQLVESGGGLVQAGGSLRLSCAAWSIFYLNAMGWYRQAPGKERELVAAISSAGSTYYADSVKGRFTISRDNAKNTVYLQMNSLKPEDTAVYYCAAYWYDSPGVTEIWYDYWGQGTQVTVSS”, the “polyreactivity (PSR sort gate)” value is “low polyreactivity”.
Consider “QVQLVESGGGLVQAGGSLRLSCAASGYIFYANAMGWYRQAPGKERELVASISTGGNTNYADSVKGRFTISRDNAKNTVYLQMKSLKPEDTAVYYCAVRSTVPYLWRTPVTRDYWGQGTQVTVSS”, for which the “polyreactivity (PSR sort gate)” value was “low polyreactivity”.
As for “QVQLVESGGGLVQAGGSLRLSCAASGRIFTRYAMGWYRQAPGKERELVAVITRSGGSTYYADSVKGRFTISRDNAKNTVYLQMNSLKPEDTAVYYCAAKYYGEMYYWGQGTQVTVSS”, the “polyreactivity (PSR sort gate)” value is reported as “low polyreactivity”.
As for “QVQLVESGGGLVQAGGSLRLSCAASGRTFNCYAMGWYRQAPGKERELVAAISNGGNTNYADSVKGRFTISRDNAKNTVYLQMNSLKPEDTAVYYCAARATPAFSRRGYYWGQGTQVTVSS”, the “polyreactivity (PSR sort gate)” value is reported as “high polyreactivity”.
In the case of “QVQLVESGGGLVQAGGSLRLSCAASGSTFYFNAMGWYRQAPGKERELVAGIRYSGSSTYYADSVKGRFTISRDNAKNTVYLQMNSLKPVDTAVYYCAASLWRWRFSGFGYWGQGTQVTVSS”, the “polyreactivity (PSR sort gate)” value is given as “high polyreactivity”.
For the sequence “QVQLVESGGGLVQAGGSLRLSCAASGFTFIPNAMGWYRQAPGKERELVAAISTGGSTYYADSVKGRFTISRDNAKNTVYLQMNSLKPEDTAVYYCAAGILVLKLYFSSYDYWGQGTEVTVSS”, the “polyreactivity (PSR sort gate)” value is “low polyreactivity”.
As to “QVHLVESGGGLVQAGGSLRLSCAASGFTFRRYAMGWYRQAPGKERELVAAISYGGGRTYYADSVKGRFTISRDNAKNTVYLQMNSLKPEDTAVYYCAADVQSRYVGEGDYWGQGTQVTVSS”, the “polyreactivity (PSR sort gate)” value is “high polyreactivity”.
With “QVQLVESGGGLVQAGGSLRLSCAASGFIFAGYTMGWSRPAHGKERELVAAIRSSGGRTYYADSVKGRFTISRDNAKNTVYLQMYSMKPEDTAVDYCNAVVDRLIFWQFDYWGQGTQVTVSS” the entry was “high polyreactivity”; with “QVQLVESGGGLVQAGGSLRLSCAASGSIFIQYAMGWYRQAPGKERELVAAINSSGGRTYYADSVKGRFTISRDNAKNTVYLQMNSLKPEDTAVYYCAADHGSSFDWGQGTQVTVSS”, “low polyreactivity”; with “QVQLVESGGGLVQAGGSLRLSCAASGSIFRPYAMGWYRQAPGKERELVAGITFIGGSTYYADSVKGRFTISRDNAKNTVYLQRNSLKPEDTAVYYCNADVAPGIFYGYDSWGQGTQVTVSS”, “low polyreactivity”.
